Experimental data reported in publication PMC10278182, “Evaluation of Nanopore Sensor Design Using Electrical and Optical Analyses” (ACS Nano, 2023).

Columns and labels:
Assay in all cases: BLI; ND-BLI: biotinylated nanodiscs (15 nM) with reconstituted nanopores loaded on streptavidin (SAX) sensors; WDR5 in solution, 1 to 18 μM; 300 mM KCl, 20 mM Tris-HCl, 1 mg/mL BSA, 1 mM TCEP, pH 7.5; 24 °C; empty nanodiscs as reference
Details in all cases: both partners purified
[1] = target: T1, WD40 repeat protein 5 truncation mutant lacking residues 1-22 (WDR5ΔN) (UniProt P61964 23-334)
[2] = target: T1, WD40 repeat protein 5 truncation mutant …; remark: listed apart in the source
[3] = target: T1, WD40 repeat protein 5 truncation mutant …; remark: listed apart in the source

| Kd [1] | koff [2] | kon [2] | koff [3] | kon [3] | Binder |
| --- | --- | --- | --- | --- | --- |
| 250 ± 50 nM | 0.0046 s⁻¹ | 19000 M⁻¹ s⁻¹ | – | – | MGDRGPEFELGTMLNPHGAARAEVYLRGGSGGS (other) [O(GGS)2 nanopore sensor (adaptor O - MLL4Win - (GGS)2 tether - tFhuA)] |
| 260 ± 30 nM | 0.0049 s⁻¹ | 19000 M⁻¹ s⁻¹ | – | – | MLNPHGAARAEVYLRGGSGGS (other) [(GGS)2 nanopore sensor without the peptide adaptor (MLL4Win - (GGS)2 tether - tFhuA)] |
| 3010 ± 940 nM | – | – | 0.018 s⁻¹ | 6000 M⁻¹ s⁻¹ | MGDRGPEFELGTMLNPHGAARAEVYLRPAPAPA (other) [O(PA)3 nanopore sensor (adaptor O - MLL4Win - (PA)3 tether - tFhuA)] |
